The record followed here is article PMC6222095 (2018).

Substitutions are numbered along the chain they refer to.

The labels stand for the following.
B1: complement factor H, homozygous Tyr-402/Val-62 allotype (natural protein)
chain: EDCNELPPRRNTEILTGSWSDQTYPEGTQAIYKCRPGYRSLGNVIMVCRKGEWVALNPLRKCQKRPCGHPGDTPFGTFTLTGGNVFEYGVKAVYTCNEGYQLLGEINYRECDTDGWTNDIPICEVVKCLPVTAPENGKIVSSAMEPDREYHFGQAVRFVCNSGYKIEGDEEMHCSDDGFWSKEKPKCVEISCKSPDVINGSPISQKIIYKENERFQYKCNMGYEYSERGDAVCTESGWRPLPSCEEKSCDNPYIPNGDYSPLRIKHRTGDEITYQCRNGFYPATRGNTAKCTSTGWIPAPRCTLKPCDYPDIKHGGLYHENMRRPYFPVAVGKYYSYYCDEHFETPSGSYWDHIHCTQDGWSPAVPCLRKCYFPYLENGYNQNYGRKFVQGKSIDVACHPGYALPKAQTTVTCMENGWSPTPRCIRVKTCSKSSIDIENGFISESQYTYALKEKAKYQCKLGYVTADGETSGSITCGKDGWSAQPTCIKSCDIPVFMNARTKNDFTWFKLNDTLDYECHDGYESNTGSTTGSIVCGYNGWSDLPICYERECELPKIDVHLVPDRKKDQYKVGEVLKFSCKPGFTIVGPNSVQCYHFGLSPDLPICKEQVQSCGPPPELLNGNVKEKTKEEYGHSEVVEYYCNPRFLMKGPNKIQCVDGEWTTLPVCIVEESTCGDIPELEHGWAQLSSPPYYYGDSVEFNCSESFTMIGHRSITCIHGVWTQLPQCVAIDKLKKCKSSNLIILEEHLKNKKEFDHNSNIRYRCRGKEGWIHTVCINGRWDPEVNCSMAQIQLCPPPPQIPNSHNMTTTLNYRDGEKVSVLCQENYLIQEGEEITCKDGRWQSIPLCVEKIPCSQPPQIEHGTINSSRSSQESYAHGTKLSYTCEGGFRISEENETTCYMGKWSSPPQCEGLPCKSPPEISHGVVAHMSDSYQYGEEVTYKCFEGFGIDGPAIAKCLGEKWSHPPSCIKTDCLSLPSFENAIPMGEKKDVYKAGEQVTYTCATYYKMDGASNVTCINSRWTGRPTCRDTSCVNPPTVQNAYIVSRQMSKYPSGERVRYQCRSPYEMFGDEEVMCLNGNWTEPPQCKDSTGKCGPPPPIDNGDITSFPLSVYAPASSVEYQCQNLYQLEGNKRITCRNGQWSEPPKCLHPCVISREIMENYNIALRWTAKQKLYSRTGESVEFVCKRGYRLSSRSHTLRTTCWDGKLEYPTCAKR
modifications: eight biantennary disialylated N-glycans; sites as printed: Asn-511, Asn-700, Asn-784, Asn-804, Asn-864, Asn-892, Asn-1011, Asn-1077
B2: complement factor H, double homozygous His-402/Val-62 allotype (natural protein)
chain: B1 chain with Y384H
modifications: eight biantennary disialylated N-glycans; sites as printed: Asn-511, Asn-700, Asn-784, Asn-804, Asn-864, Asn-892, Asn-1011, Asn-1077

Data set [1] addresses B2. Put plainly: SPR.
The data set “SPR” concerns the molecule itself. Nature of the data set: SPR.

Turning to B1, the Kd in data set [1] was more than 40 µM.
Take B2: the Kd in “SPR” is more than 40 µM.
